The subject of one data set is CCLR. The experiment in a line: AUC interaction of MRIP peptides with MYPT1 peptide CCLR (residues 924–1030). The following applies: equimolar mixtures (MRIP^545-878 14 μM each; MRIP^724-878 30 μM each; MRIP^724-837 67 μM each) and 3-, 9-fold dilutions, pH 7.4, 100 mM KCl, 20°C. Type of data set: binding. On the procedure:
AUC was performed to examine the interactions of MRIP^545-878, MRIP^724-878, or MRIP^724-837 individually with the MYPT1 peptide (residues 924–1030) containing a putative coiled coil domain (CC) and the leucine repeat region (LR), designated as CCLR.
Fig 3 All MRIP peptides bind to the C-terminal region of MYPT1, CCLR (residues 924–1030). Concentration-normalized time derivative g(s*) graphs of the MRIP peptides by themselves and in equimolar mixtures: Lines, CCLR (30 μM); +, individual MRIP peptides by themselves (MRIP^545-878, 14 μM; MRIP^724-878, 50 μM; MRIP^724-837, 67 μM); black filled-in circles, original equimolar mixtures (MRIP^545-878, 14 μM each; MRIP^724-878, 30 μM each; MRIP^724-837, 67 μM each); open circles, 3-fold dilutions; gray filled-in circles, 9-fold dilutions.
The cDNA fragment encoding MRIP peptides were amplified using a full-length MRIP cDNA as a template with the following primer pairs: MRIP^545-878, 5’-[…]/5’[…]; MRIP^724-878, 5’-[…]/5’-[…]; MRIP^724-837, 5’-[…]/5’-[…]. The PCR products were ligated into pCR2.1-TOPO using the TA cloning system and sequenced in both directions. The IMPACT™ (Intein Mediated Purification with an Affinity Chitin-binding Tag) Kit (New England BioLabs) was used to express peptides in bacteria to obtain tag-free peptides. The PCR amplicon encoding MRIP peptides were fused in frame to the chitin binding domain of pTYB12 vector utilizing the NdeI/EcoRI restriction sites. The expression vectors for the MYPT1 peptides, CCLR (residues 924–1030), CC (residues 924–990), and LR (residues 991–1030) were constructed as described: In the reference literature, CCLR and LR were named CCLZ and LZ, respectively. Recombinant peptides were produced in Escherichia coli strain BL21 (DE3) and purified using chitin beads according to the manufacturer's protocol. For further purification, the eluent from chitin beads was loaded on a Vydac C8 reversed phase column and subjected to HPLC using an acetonitrile gradient. Purity and identity of the peptides were confirmed by polyacrylamide gel electrophoresis (PAGE) and mass spectrometry. […]

The nature of data set [1]: AUC sedimentation velocity of MRIP peptides alone (molar mass, sedimentation coefficient, oligomeric state). Type of data set: physicochemical. An excerpt: The RMSD of the fit was 0.008.
(§1) The cDNA fragment encoding MRIP peptides were amplified using a full-length MRIP cDNA as a template with the following primer pairs: MRIP^545-878, 5’-[…]/5’[…]; MRIP^724-878, 5’-[…]/5’-[…]; MRIP^724-837, 5’-[…]/5’-[…]. The PCR products were ligated into pCR2.1-TOPO using the TA cloning system and sequenced in both directions. The IMPACT™ (Intein Mediated Purification with an Affinity Chitin-binding Tag) Kit (New England BioLabs) was used to express peptides in bacteria to obtain tag-free peptides. The PCR amplicon encoding MRIP peptides were fused in frame to the chitin binding domain of pTYB12 vector utilizing the NdeI/EcoRI restriction sites. The expression vectors for the MYPT1 peptides, CCLR (residues 924–1030), CC (residues 924–990), and LR (residues 991–1030) were constructed as described: In the reference literature, CCLR and LR were named CCLZ and LZ, respectively. Recombinant peptides were produced in Escherichia coli strain BL21 (DE3) and purified using chitin beads according to the manufacturer's protocol. For further purification, the eluent from chitin beads was loaded on a Vydac C8 reversed phase column and subjected to HPLC using an acetonitrile gradient. Purity and identity of the peptides were confirmed by polyacrylamide gel electrophoresis (PAGE) and mass spectrometry. For the mutagenesis study of LR, the wild-type and mutant LR peptides were synthesized, purified by reverse-phase HPLC, and lyophilized to dryness at the peptide core in Boston Biomedical Research Institute.
Sedimentation velocity experiments were done on a Beckman Instruments Optima XL-I analytical ultracentrifuge equipped with Rayleigh optics. The cells were equipped with sapphire windows and 12 mm charcoal-filled Epon centerpieces. Apparent sedimentation coefficient distribution patterns were computed by the time derivative method. Peptides were dialyzed against 50 mM potassium phosphate buffer (pH 7.4) containing 100 mM KCl, and 1 mM DTT at 4°C overnight and then subjected to AUC at 50,000 rpm and 20°C. Molar mass was computed from sedimentation velocity profiles using SedAnal, which uses a nonlinear least-squares curve fitting algorithm to fit data to solutions of the differential equation (the Lamm equation) describing sedimentation. Fits were performed on time difference data to remove the time-independent systematic baseline components. Values of s and D produced by the fitting procedure were substituted into the Svedberg equation to obtain the molar mass of the protein, M: M=RT/(1−ν¯ρ)s20,wo/D20,wo where ρ is the density of the buffer and ν¯ is the partial specific volume of the protein. Sednterp was employed to compute values of ρ and ν¯ from the amino acid sequence.

For data set [2], the target named is T1, MRIP^724-878 (Homo sapiens, UniProt Q6WCQ1).
T1 construct: MRIP^724-878 (residues 724–878; CC2-CC4); made in house; host or cells: Escherichia coli BL21 (DE3)
T1 sequence (Q6WCQ1 725-879): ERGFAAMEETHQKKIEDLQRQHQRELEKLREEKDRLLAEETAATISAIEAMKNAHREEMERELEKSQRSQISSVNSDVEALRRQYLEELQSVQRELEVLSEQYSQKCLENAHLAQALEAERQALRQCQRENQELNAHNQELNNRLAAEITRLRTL
The data set can be described thus: SPR, MYPT1 peptides as analytes over immobilized MRIP^724-878. Type of data set: binding. The following applies: 25°C, pH 7.4, CCLR 167–1 μM, CC 318–10 μM, LR 569–5 μM. As to the method: To corroborate the results from AUC studies, SPR was employed. […] Equilibrium K d values were obtained by nonlinear curve fitting of reference-corrected curves using the steady-state affinity fitting model in BIAevaluation version 4–1.
Analytes CCLR, CC, LR: Interactions between analytes, CCLR (167–1 μM), CC (318–10 μM), and LR (569–5 μM) with immobilized ligand, MRIP^724-878 (1800 RU) after correction for nonspecific binding using G-actin (2230 RU). Shown is a representative out of 9 experiments for CCLR and 8 for LR in each, duplicates or triplicates. Insets show fittings of steady-state affinity. Ligand LR: Interaction of analyte, MRIP^724-878 (85.6–0.7 μM) with immobilized ligand, LR (244.8 RU) after correction for nonspecific binding using a nebulin-derived peptide (600 RU). Shown is a representative out of 6 experiments.
Binding analyses of SPR were conducted on a Biacore 3000 (GE Healthcare) at 25°C. Sensor chips and reagents for immobilization (1-ethyl-3-(3-dimethylaminopropyl) carbodiimide, N-hydroxyl-succinimide, and ethanolamine) were purchased from GE Healthcare. Peptides were immobilized onto a CM5 sensor chip at 232–5841 resonance units (RU) using amine coupling. Binding studies were done using two-fold serial dilutions of the peptides in 50 mM potassium phosphate buffer (pH 7.4) containing 100 mM KCl. […]
On the technique in general: Surface plasmon resonance follows binding to a sensor surface in real time, without labels.

Data set [3] concerns the target T1, MRIP^724-878. The data set can be described thus: AUC interaction of MYPT1 peptides (CC, LR and LR mutants) with MRIP^724-878. In kind it is binding. The following applies: equimolar mixture (CC: 50 μM each) and dilutions, pH 7.4, 100 mM KCl, 20°C.
Excerpt: (§2) To determine the minimal MRIP-binding region of MYPT1, AUC was employed to examine interactions between sub-domains of CCLR, CC (residues 924–990) and LR (residues 991–1030) with MRIP^724-878 (Fig 4A). CC is the putative coiled coil domain and LR contains 16 upstream amino acid residues (residues 991–1006) in addition to the leucine repeat (residues 1007–1028). MRIP^724-878 was chosen because of its good fit to a single component, single-species model. […] Global fitting of the mixture to a two-component model produced a good fit and the RMSD of the fit was 0.010 (Fig 4B; Fitting of CC).
The coiled coil is a common protein-protein interaction domain. The MRIP peptides in this study have putative coiled coil domains and are α-helical. In contrast, the MYPT1 peptide, LR is not α-helical even though it contains the leucine repeat. Thus, we hypothesized that charged residues of MYPT1 might participate in the MYPT1/MRIP interaction with its leucine residues. We generated various LR peptides representing mutations in charged residues (Fig 6A) and examined their bindings to MRIP^724-878 (Fig 6B).
Fig 6 Glutamic acids within LR enhance the MRIP-binding affinity. (A) Amino acid sequences of the wild-type LR (WT-LR) and mutant LR peptides. Charged residues are in bold, the leucine repeat is in Italic, and substitution mutations are underlined. (B) Time derivative s*lg(s*) graphs: Line, MRIP^724-878 alone (50 μM); filled-in circles, original mixture of MRIP^724-878/each mutant LR peptide (50 μM each except for R992D/R993D and E996K whose mixtures consisted of excess amount of the mutant LR peptides); open circles, a three-fold dilution of the original mixture. The molar mass of the complex differs slightly from that of MRIP^724-878 dimer (37.9 kDa vs 37.4 kDa), and thus the shift in the main peak position is not easily discernable in many cases.
as §1
Sedimentation velocity experiments were done on a Beckman Instruments Optima XL-I analytical ultracentrifuge equipped with Rayleigh optics. The cells were equipped with sapphire windows and 12 mm charcoal-filled Epon centerpieces. Apparent sedimentation coefficient distribution patterns were computed by the time derivative method. Peptides were dialyzed against 50 mM potassium phosphate buffer (pH 7.4) containing 100 mM KCl, and 1 mM DTT at 4°C overnight and then subjected to AUC at 50,000 rpm and 20°C. […]

A short description of data set [4]: AUC of MYPT1 peptides alone (concentration dependence, self-association). In kind it is physicochemical. The following applies: CC alone, 107 μM and 3-, 9-fold dilutions, MRIP^724-878 alone, 50 μM and 3-, pH 7.4, 20°C.
Excerpt: as §2
Fig 4 LR contains sufficient residues for the MYPT1/MRIP interaction. […] CC; Concentration-normalized time derivative g(s*) plots of CC, MRIP^724-878, and equimolar mixtures of the two peptides: Black filled-in circles, an original CC alone (107 μM); dark gray filled-in circles, a 3-fold dilution of CC alone; light gray filled-in circles, a 9-fold dilution of CC alone; black filled-in triangles, an original MRIP^724-878 alone (50 μM); dark gray filled-in triangles, a 3-fold dilution of MRIP^724-878 alone; light gray filled-in triangles, a 9-fold dilution of MRIP^724-878 alone; a black line, an original equimolar mixture of MRIP^724-878/CC (50 μM each): a dark gray line, a 3-fold dilution of the mixture; a light gray line, a 9-fold dilution of the mixture. […]

B1: MRIP^724-837: recombinant tag-free MRIP peptide, residues 724–837; CC2-CC3 (protein)
chain: CERGFAAMEETHQKKIEDLQRQHQRELEKLREEKDRLLAEETAATISAIEAMKNAHREEMERELEKSQRSQISSVNSDVEALRRQYLEELQSVQRELEVLSEQYSQKCLENAHL
modifications: left off: chitin-binding domain (IMPACT kit, pTYB12), N-terminal, cleaved
notes: recombinant tag-free MRIP peptide, residues 724–837; CC2-CC3
With B1, the “binding to CCLR (shift in g(s*) curves)” value in the data set on CCLR is “bind to CCLR”. The molecule further gave a molar mass in data set [1] (AUC sedimentation velocity, SedAnal global fit to monomer-dimer reaction, 7.5–67.1 μM, 50 mM potassium phosphate pH 7.4, 100 mM KCl, 1 mM DTT, 20°C, CL 0.95) of 13.9±0.2 kDa. The “oligomeric state in solution” value in data set [1] (AUC sedimentation velocity, pH 7.4, 100 mM KCl, 20°C) is listed as “a mixture of monomer-dimer”. Further, the “sedimentation coefficient, monomer” value in data set [1] (AUC, monomer-dimer model, 7.5–67.1 μM, pH 7.4, 100 mM KCl, 20°C, CL 0.95, min, 1.23, max, 1.31) was determined as 1.29 S. In addition, in data set [1] (AUC, monomer-dimer model, 7.5–67.1 μM, pH 7.4, 100 mM KCl, 20°C, CL 0.95, min, 1.88, max, 1.91), the “sedimentation coefficient, dimer” value is 1.90 S. Moreover, the “concentration dependence of g(s*) curves” value in data set [1] (AUC, MRIP^545-878 1.5–13.6 μM, MRIP^724-878 4.7–42.3 μM, MRIP^724-837 7.5–67.1 μM, pH 7.4, 20°C) is “concentration dependence and a reversible interaction”.

B2: CC: sub-domain of CCLR, residues 924–990; the putative coiled coil domain (protein, UniProt Q6WCQ1 924-990, looked up, fragment)
chain: KDELQTALRDKKYASDKYKDIYTELSIAKAKADCDISRLKEQLKAATEALGEKSPDSATVSGYDIMK
For the molecule B2, the “complex formation with immobilized MRIP^724-878” value in the data set with MRIP^724-878 [2] was “did not”. Besides, the “binding to MRIP^724-878 (g(s*) curves)” value with MRIP^724-878 [3] is on record as “no binding”. Also, the “concentration dependence of g(s*) curves” value in data set [4] is “superimposable, indicating concentration-independence”.

The values above are taken from article PMC4596477, “Interaction of Myosin Phosphatase Target Subunit (MYPT1) with Myosin Phosphatase-RhoA Interacting Protein (MRIP): A Role of Glutamic Acids in the Interaction” (PLoS ONE, 2015).
